Source: patent US8859492
Where no end group is shown, it is not given here. [ ]: non-standard residue; d: D form. Cha = N[C@@H](CC1CCCCC1)C(=O)O

Legend:
[1] = target: HCV protease (hepatitis C virus); assay: cell-based or functional assay
[2] = target: HCV protease (hepatitis C virus); assay: apparent binding affinity; method not described
[3] = target: HCV protease (hepatitis C virus); assay: binding/inhibition curve of FIG. 1 (left); method not described
Co-GGH-lisinopril = target: T1, Co-GGH-lisinopril
T1 chain: GGH

Cu-GGH-lisinopril = target: T2, Cu-GGH-lisinopril
T2 chain: GGH

Ni-GGH-lisinopril = target: T3, Ni-GGH-lisinopril (not fully specified)
T3 chain: GGH

[Cu-GGH]^1- = target: T4, [Cu-GGH]^1-
T4 chain: GGH

[4] = target: T5, S. aureus sortase A (S. aureus), Q2FV99; assay: cell-based or functional assay
T5 chain: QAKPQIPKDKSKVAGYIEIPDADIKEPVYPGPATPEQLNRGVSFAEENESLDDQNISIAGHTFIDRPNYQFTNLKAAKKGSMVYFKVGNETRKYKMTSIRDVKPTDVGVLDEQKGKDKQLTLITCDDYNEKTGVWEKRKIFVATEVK

**Q.** For GGHGD[dE]LI[Cha]C-OH (also: Cu complex) [Cu-GGHGDeLI(Cha)C-CO2^-], which kinact [1] is on record?
**A.** 0.0014 min⁻¹

**Q.** What about the rate constant for inactivation kinact, in the presence of ascorbate/O2 [1] of the same binder?
**A.** < 0.083 h⁻¹

**Q.** What about the Ka [2] of the same binder?
**A.** 2e+06 M⁻¹

**Q.** What about the Ki [3] of the same binder?
**A.** 500 nM

**Q.** For GGHGD[dE]LI[Cha]T (also: Cu complex) [Cu-GGHGDeLI(Cha)T], which kinact [1] is on record?
**A.** 0.042 min⁻¹

**Q.** What about the Ka [2] of the same binder?
**A.** 33000 M⁻¹

B1: Recombinant human somatic ACE (sACE-1: Leu30-Leu1261, with C-terminal His tag) (protein)
chain: LDPGLQPGNFSADEAGAQLFAQSYNSSAEQVLFQSVAASWAHDTNITAENARRQEEAALLSQEFAEAWGQKAKELYEPIWQNFTDPQLRRIIGAVRTLGSANLPLAKRQQYNALLSNMSRIYSTAKVCLPNKTATCWSLDPDLTNILASSRSYAMLLFAWEGWHNAAGIPLKPLYEDFTALSNEAYKQDGFTDTGAYWRSWYNSPTFEDDLEHLYQQLEPLYLNLHAFVRRALHRRYGDRYINLRGPIPAHLLGDMWAQSWENIYDMVVPFPDKPNLDVTSTMLQQGWNATHMFRVAEEFFTSLELSPMPPEFWEGSMLEKPADGREVVCHASAWDFYNRKDFRIKQCTRVTMDQLSTVHHEMGHIQYYLQYKDLPVSLRRGANPGFHEAIGDVLALSVSTPEHLHKIGLLDRVTNDTESDINYLLKMALEKIAFLPFGYLVDQWRWGVFSGRTPPSRYNFDWWYLRTKYQGICPPVTRNETHFDAGAKFHVPNVTPYIRYFVSFVLQFQFHEALCKEAGYEGPLHQCDIYRSTKAGAKLRKVLQAGSSRPWQEVLKDMVGLDALDAQPLLKYFQPVTQWLQEQNQQNGEVLGWPEYQWHPPLPDNYPEGIDLVTDEAEASKFVEEYDRTSQVVWNEYAEANWNYNTNITTETSKILLQKNMQIANHTLKYGTQARKFDVNQLQNTTIKRIIKKVQDLERAALPAQELEEYNKILLDMETTYSVATVCHPNGSCLQLEPDLTNVMATSRKYEDLLWAWEGWRDKAGRAILQFYPKYVELINQAARLNGYVDAGDSWRSMYETPSLEQDLERLFQELQPLYLNLHAYVRRALHRHYGAQHINLEGPIPAHLLGNMWAQTWSNIYDLVVPFPSAPSMDTTEAMLKQGWTPRRMFKEADDFFTSLGLLPVPPEFWNKSMLEKPTDGREVVCHASAWDFYNGKDFRIKQCTTVNLEDLVVAHHEMGHIQYFMQYKDLPVALREGANPGFHEAIGDVLALSVSTPKHLHSLNLLSSEGGSDEHDINFLMKMALDKIAFIPFSYLVDQWRWRVFDGSITKENYNQEWWSLRLKYQGLCPPVPRTQGDFDPGAKFHIPSSVPYIRYFVSFIIQFQFHEALCQAAGHTGPLHKCDIYQSKEAGQRLATAMKLGFSRPWPEAMQLITGQPNMSASAMLSYFKPLLDWLRTENELHGEKLGWPQYNWTPNSARSEGPLPDSGRVSFLGLDLDAQQARVGQWL
**Q.** Which second order rate constant for cleavage of full length sACE-1 (SDS-PAGE), ascorbate + H2O2 (Co-GGH-lisinopril) does the source give for B1 here?
**A.** < 1170 M⁻¹ s⁻¹

**Q.** And the second order rate constant for cleavage of full length sACE-1 (SDS-PAGE), H2O2 (Cu-GGH-lisinopril)?
**A.** 250 M⁻¹ s⁻¹

**Q.** And the second order rate constant for cleavage of full length sACE-1 (SDS-PAGE), ascorbate (Cu-GGH-lisinopril)?
**A.** < 100 M⁻¹ s⁻¹

**Q.** What about the second order rate constant for cleavage of full length sACE-1 (SDS-PAGE), ascorbate + H2O2 (Cu-GGH-lisinopril) of the same binder?
**A.** 1170 M⁻¹ s⁻¹

**Q.** And the second order rate constant for cleavage of full length sACE-1 (SDS-PAGE), ascorbate (Ni-GGH-lisinopril)?
**A.** < 1000 M⁻¹ s⁻¹

**Q.** What about the second order rate constant for cleavage of full length sACE-1 (SDS-PAGE), ascorbate + H2O2 ([Cu-GGH]^1-) of the same binder?
**A.** < 50 M⁻¹ s⁻¹

**Q.** How did the activity for catalyst concentration of 1 µM [4] turn out when GGHLPETG (modifications not checked) [Cu-GGHLPETG (SEQ ID NO: 103)] was run?
**A.** 0.017

**Q.** How did the activity for catalyst concentration of 1 µM [4] turn out when GGHGLPET (modifications not checked) [Cu-GGHGLPET (SEQ ID NO: 104)] was run?
**A.** 0.027

**Q.** For GGHGLPETG (modifications not checked) [Cu-… (SEQ ID NO: 105)], which activity for catalyst concentration of 1 µM [4] is on record?
**A.** 0.012

**Q.** How did the activity for catalyst concentration of 1 µM [4] turn out when GGHLPET (modifications not checked) [Cu-GGHLPET (SEQ ID NO: 102)] was run?
**A.** 0.009
